Data reported in patent US20200299415A1.

Tests used:
[1] = biological target: cell surface receptors in membranes prepared from SH-SY5Y cells; experiment: radioligand saturation binding on SH-SY5Y cell membranes, filtration, nonlinear regression; lower end of range
[2] = biological target: cell surface receptors in membranes prepared from SH-SY5Y cells; experiment: radioligand saturation binding on SH-SY5Y cell membranes; upper end of printed range
[3] = biological target: cell surface receptors in membranes prepared from SH-SY5Y cells; experiment: radioligand saturation binding on SH-SY5Y cell membranes, filtration, nonlinear regression; upper end of printed range
[4] = biological target: cell surface receptors in membranes prepared from SH-SY5Y cells; experiment: radioligand saturation binding on SH-SY5Y cell membranes; lower end of range

“[3H][Dmt1]DALDA (2',6'-Dmt-D-Arg-Phe-Lys-NH2, tritiated) (peptide)” showed a Kd [1] of 0.087 nM, a Bmax (fmol/mg protein) [2] of 104 and a Kd [3] of 0.149 nM. It also gave a Bmax (fmol/mg protein) [4] of 88.
